CN115433274A (BEIJING KENUO XINCHENG TECH CO LTD, dated 2022)

B2: 食蟹猴SA重组蛋白 (other)
chain: DTHKSEVAHRFKDLGEEHFKGLVLVAFSQYLQQCPFEEHVKLVNEVTEFAKTCVADESAENCDKSLHTLFGDKLCTVATLRETYGEMADCCAKQEPERNECFLQHKDDNPNLPPLVRPEVDVMCTAFHDNEATFLKKYLYEVARRHPYFYAPELLFFAARYKAAFAECCQAADKAACLLPKLDELRDEGKASSAKQRLKCASLQKFGDRAFKAWAVARLSQKFPKAEFAEVSKLVTDLTKVHTECCHGDLLECADDRADLAKYMCENQDSISSKLKECCDKPLLEKSHCLAEVENDEMPADLPSLAADYVESKDVCKNYAEAKDVFLGMFLYEYARRHPDYSVMLLLRLAKAYEATLEKCCAAADPHECYAKVFDEFQPLVEEPQNLVKQNCELFEQLGEYKFQNALLVRYTKKVPQVSTPTLVEVSRNLGKVGAKCCKLPEAKRMPCAEDYLSVVLNRLCVLHEKTPVSEKVTKCCTESLVNRRPCFSALELDEAYVPKAFNAETFTFHADMCTLSEKEKQVKKQTALVELVKHKPKATKEQLKGVMDNFAAFVEKCCKADDKEACFAEEGPKFVAASQAALA
notes: Bought product; also called cyno SA; Cynomolgus serum albumin

How the values were obtained:
牛血清白蛋白(BSA) = target: T1, 牛血清白蛋白(BSA) (bovine, UniProt P02769 25-607); assay: phage ELISA, phage supernatant on BSA-coated plate
T1 construct: also called Bovine serum albumin

食蟹猴SA重组蛋白 = target: B2; assay: phage ELISA, phage supernatant on cyno SA-coated plate
[1] = target: T2, 对照抗体ALB8 (ALB8重组蛋白, VHH-hFc) (human); assay: ELISA, albumin coated at 1 μg/mL, HRP-anti-human Fc
T2 construct: Control anti-HSA nanobody expressed as fusion with human Fc; also called 对照纳米抗体ALB8
T2 sequence (chain, as listed by the source limits assumed): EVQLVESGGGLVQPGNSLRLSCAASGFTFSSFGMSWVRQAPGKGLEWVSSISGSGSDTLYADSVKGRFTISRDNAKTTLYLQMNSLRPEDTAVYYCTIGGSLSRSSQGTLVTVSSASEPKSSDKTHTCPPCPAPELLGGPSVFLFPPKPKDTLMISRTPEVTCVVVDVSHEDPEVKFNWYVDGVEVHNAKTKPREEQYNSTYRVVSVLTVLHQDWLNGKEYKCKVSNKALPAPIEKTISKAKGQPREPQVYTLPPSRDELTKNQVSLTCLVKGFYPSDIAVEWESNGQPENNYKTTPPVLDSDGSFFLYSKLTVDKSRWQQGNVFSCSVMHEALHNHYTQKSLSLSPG

B1: 噬菌体展示的纳米抗体2MG6 (VHH)
VHH: QVQLQESGGGLVQAGGSLRLSCAASGSTYPTAYIAWFRQAPGKEREGVAGIYTVGGSTFYTDSVKGRFTISRDNAKNTVYLLMNSLKPEDTAMYFCAAGRTDTAKLRDPRSFGYWGQGTQVTVSS
notes: the phage fusion part is not described; also called 克隆2MG6
binding result (牛血清白蛋白(BSA)): no binding
binding result (食蟹猴SA重组蛋白): binds

B2
binding result [1]: binds
